# Test results: publication doi:10.1101/2025.10.12.681846v1 (bioRxiv, 2025)
# Read-outs that look alike come from different tables or passages of the source.
# Key:
# [1] = Biodistribution and intra-tissue distribution in diabetic mice; format: in vivo; conditions: three days after s.c. 10 mg/kg; CD31 staining
# [2] = SPECT/CT imaging of 131I-labelled insulin-129 in diabetic mice; format: in vivo; conditions: s.c. 10 mg/kg
# [3] = system: STZ-induced type 1 diabetic mice; test: Type 1 diabetes treatment study in mice; format: in vivo, C57BL/6 mice
# type 1 diabetic mice [4] = test: In vivo glucose-responsive insulin release in mice; conditions: for initial PIL: before glucose 3 g/kg
# type 1 diabetic minipigs [5] = test: Type 1 diabetes treatment study in minipigs; format: in vivo, Bama minipigs; conditions: for time BG remained within the target range (70 to 200 mg/dL): n = 3, statistical time 0-168 h for insulin-129 and 0-24 h for Lantus
# [6] = Pharmacokinetics after subcutaneous injection in diabetic mice; format: in vivo; conditions: s.c. 12 mg/kg
# type 1 diabetic minipigs [7] = test: Fully automated insulin delivery system in diabetic minipigs; format: in vivo; conditions: 48 h
# mouse IgG1-Fc = mouse IgG1-Fc (Mus musculus, UniProt P01868); test: SPR binding to mouse IgG1-Fc; conditions: for Kd: read-out: KD for IgG1-Fc, SPR, 25 °C, DPBS pH 7.4
# [8] = Pharmacokinetics after intravenous injection in healthy mice; format: in vivo, C57BL/6J mice; conditions: i.v. 1 nmol/kg, two-compartment model, n = 5
# [9] = system: STZ-induced type 1 diabetic mice; test: Isoglycaemic clamp at hyperglycaemia in diabetic mice; format: in vivo; conditions: BG clamped at 400 mg/dL; one day after 12 mg/kg; n = 5
# [10] = system: STZ-induced type 1 diabetic mice; test: Long-term therapy as weekly formulation in diabetic mice; format: in vivo, C57BL/6 mice; conditions: for BG drop in the first few hours after injection: n = 5
# healthy mice = test: Isoglycaemic; format: in vivo; conditions: summary statement
# [11] = Pharmacokinetic studies in diabetic minipigs; format: in vivo, Bama minipigs; conditions: s.c., two-compartmental model, n = 3
# type 1 diabetic mice [12] = test: Intraperitoneal glucose tolerance test in diabetic mice; format: in vivo; conditions: i.p. glucose 1.5 g/kg, n = 5
# mouse nostrin = molecular target: T1, mouse nostrin (Mus musculus, UniProt Q6WKZ7); test: SPR binding to mouse nostrin; conditions: for Kd: read-out: KD for nostrin, SPR, 25 °C, DPBS pH 7.4
# T1 sequence (Q6WKZ7 1-506): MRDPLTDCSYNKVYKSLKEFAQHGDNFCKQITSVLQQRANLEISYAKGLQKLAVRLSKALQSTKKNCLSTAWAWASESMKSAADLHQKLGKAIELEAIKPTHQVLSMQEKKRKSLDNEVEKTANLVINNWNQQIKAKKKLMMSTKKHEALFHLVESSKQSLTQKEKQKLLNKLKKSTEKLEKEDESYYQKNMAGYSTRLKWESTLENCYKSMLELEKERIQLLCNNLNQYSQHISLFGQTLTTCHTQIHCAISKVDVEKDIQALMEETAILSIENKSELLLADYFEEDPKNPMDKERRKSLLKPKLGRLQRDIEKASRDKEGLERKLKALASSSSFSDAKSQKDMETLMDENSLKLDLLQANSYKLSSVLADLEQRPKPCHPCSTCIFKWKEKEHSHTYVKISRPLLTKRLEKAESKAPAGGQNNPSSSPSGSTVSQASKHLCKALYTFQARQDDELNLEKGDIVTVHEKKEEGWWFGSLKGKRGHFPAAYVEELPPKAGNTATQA
# diabetic mice = test: Toxicity evaluation and histomorphology in mice; format: in vivo; conditions: one week post-injection, 10 mg/kg
# type 1 diabetic minipigs [13] = test: In vivo blood glucose-responsive insulin release in minipigs; conditions: for BG rise within 30 minutes: one day after insulin-129, i.v. glucose infusion
# human IgG1-Fc = human IgG1-Fc (Homo sapiens, UniProt P01857); test: SPR binding to human IgG1-Fc; conditions: read-out: KD for human IgG1-Fc
# human nostrin = molecular target: T2, human nostrin (Homo sapiens, UniProt Q8IVI9); test: SPR binding to human nostrin; conditions: read-out: KD for human nostrin
# T2 sequence (Q8IVI9 1-506): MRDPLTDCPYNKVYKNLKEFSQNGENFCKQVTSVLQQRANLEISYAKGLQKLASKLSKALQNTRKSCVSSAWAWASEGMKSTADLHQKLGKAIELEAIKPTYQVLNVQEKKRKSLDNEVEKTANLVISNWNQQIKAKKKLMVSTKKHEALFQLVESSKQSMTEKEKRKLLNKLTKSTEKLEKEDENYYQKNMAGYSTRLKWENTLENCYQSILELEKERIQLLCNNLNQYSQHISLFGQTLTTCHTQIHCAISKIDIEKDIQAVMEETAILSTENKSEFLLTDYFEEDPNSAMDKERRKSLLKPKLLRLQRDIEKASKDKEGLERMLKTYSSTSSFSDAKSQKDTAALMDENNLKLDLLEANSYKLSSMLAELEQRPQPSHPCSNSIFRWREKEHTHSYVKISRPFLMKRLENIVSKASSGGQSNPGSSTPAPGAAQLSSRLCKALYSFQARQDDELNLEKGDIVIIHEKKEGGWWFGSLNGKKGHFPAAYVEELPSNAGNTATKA
# [14] = five days after 12 mg/kg, n = 5
# [15] = one day after 12 mg/kg, i.p. glucose 3 g/kg
# [16] = one day after 12 mg/kg, i.p. glucose 3 g/kg, n = 5
# mouse IgG1-Fc, sequence (P01868 98-324 limits assumed): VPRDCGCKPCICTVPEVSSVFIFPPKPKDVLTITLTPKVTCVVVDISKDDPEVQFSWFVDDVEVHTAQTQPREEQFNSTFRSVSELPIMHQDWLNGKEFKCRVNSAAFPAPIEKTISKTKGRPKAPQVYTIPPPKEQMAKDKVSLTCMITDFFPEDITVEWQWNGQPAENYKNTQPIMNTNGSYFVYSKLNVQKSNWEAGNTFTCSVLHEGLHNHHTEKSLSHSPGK
substance,measurement,setting,value
Cy5-labelled insulin-129: insulin-129 labelled with Sulfo-Cy5-NHS,vascular association within the major organs,[1],high level of vascular association
^131I-labelled insulin-129: insulin-129 labelled by 131I using the chloramine T labelling method,skin absorption,[2],rapid skin absorption
insulin glargine [reference compound],glycaemic control with consecutive daily injections,"[3]; 40 U/kg every 24 hours for seven days, n = 5",poor glycaemic control
same,time normoglycaemia maintained,"[3]; single s.c. 40 U/kg (equivalent to 1.46 mg/kg), n = 5",4 h
same,time normoglycaemia maintained,"[3]; single s.c. 400 U/kg (equivalent to 14.6 mg/kg), n = 5",12 h
same,BG-correlated changes of insulin level,"type 1 diabetic mice [4]; 400 U/kg, i.p. glucose 3.0 g/kg at three and six hours, n = 5",did not display BG-correlated changes
same,time BG regulated in the normal range,"type 1 diabetic minipigs [5]; Pig-Ⅰ, single dose 0.25 U/kg",less than 12 hours
same,time BG regulated in the normal range,"type 1 diabetic minipigs [5]; Pig-Ⅱ, single dose 0.33 U/kg",less than 24 hours
same,time BG regulated in the normal range,"type 1 diabetic minipigs [5]; Pig-Ⅲ, single dose 0.48 U/kg",less than 12 hours
same,time BG remained within the target range (70 to 200 mg/dL),type 1 diabetic minipigs [5],42.9%
insulin icodec [reference compound],duration relative to insulin-129 at 12 mg/kg,[3]; 400 U/kg,roughly one-third
same,time normoglycaemia maintained,"[3]; single s.c. 400 U/kg (equivalent to 15.3 mg/kg), n = 5",approximately 72 hours
insulin-129: recombinant human insulin with 4-carboxy-3-fluorophenylboronic acid (FPBA) covalently conjugated at A1 and B29 sites,time to peak plasma insulin-129 level,[6]; ELISA,within one hour
same,peak average plasma insulin-129 level (PIL),"[6]; ELISA, n = 5",1320.0 ± 41.3 μU/mL
same,t1/2α,"[6]; two-compartment model, n = 5",5.4 ± 1.3 h
same,t1/2β,"[6]; two-compartment model, n = 5",147.8 ± 16.8 h
same,BG levels below 50 mg/dL,type 1 diabetic minipigs [7]; first of three minipigs,0%
same,"BG levels below 50 mg/dL, average","type 1 diabetic minipigs [7]; mean ± s.d., n = 3, SD",1.7 ± 2.2%
same,BG levels below 50 mg/dL,type 1 diabetic minipigs [7]; second of three minipigs,1.0%
same,BG levels below 50 mg/dL,type 1 diabetic minipigs [7]; third of three minipigs,4.2%
same,increase in KD for IgG1-Fc,mouse IgG1-Fc; glucose from 5 to 20 mM,5.0 fold
same,Kd,mouse IgG1-Fc; 5 mM glucose,137 nM
same,Kd,mouse IgG1-Fc; 10 mM glucose,276 nM
same,Kd,mouse IgG1-Fc; 20 mM glucose,691 nM
same,Kd,mouse IgG1-Fc; absence of glucose,42.4 nM
same,average t1/2β,[8],112.5 ± 17.4 h
same,mean glucose infusion rate compared with insulin glargine (5 U/kg),[9],comparable mean glucose infusion rates
same,normoglycaemia maintained by each injection,[10]; 10 mg/kg then three weekly 4.8 mg/kg s.c.,one week
same,time remaining effective before BG returned to original level,[10]; after the fourth injection,more than 800 hours
same,BG drop in the first few hours after injection,[10]; first injection (10 mg/kg s.c.),89.6 ± 13.1 mg/dL
same,BG drop in the first few hours after injection,[10]; fourth weekly injection (4.8 mg/kg s.c.),78.8 ± 8.8 mg/dL
same,stabilised BG,[10]; one day after the fourth injection,approximately 150 mg/dL
same,BG drop in the first few hours after injection,[10]; second weekly injection (4.8 mg/kg s.c.),79.6 ± 12.4 mg/dL
same,BG drop in the first few hours after injection,[10]; third weekly injection (4.8 mg/kg s.c.),77.8 ± 5.4 mg/dL
same,temporal change in blood glucose clearance determined by clamp studies,healthy mice,2 fold
same,half-life,[11],127.5 ± 36.6 h
same,lowest average BG level,"[3]; one hour after s.c. 12 mg/kg, mean ± s.d., n = 5, SD",76.0 ± 6.4 mg/dL
same,treatment duration among the three insulin analogues,"[3]; s.c. 4 mg/kg, insulin-1, insulin-29 and insulin-129, n = 5",longest duration
same,hypoglycaemia (BG < 70 mg/dL),"[3]; s.c. 4, 8 and 12 mg/kg, any mouse",No hypoglycaemia
same,extension of normoglycaemia compared with insulin glargine,[3]; single injection,approximately 47.5 folds
same,time kept normoglycaemic,"[3]; single s.c. 4 mg/kg, n = 5",46 h
same,time kept normoglycaemic,"[3]; single s.c. 8 mg/kg, n = 5",142 h
same,time kept normoglycaemic,"[3]; single s.c. 12 mg/kg, n = 5",190 h
same,BG before glucose administration,type 1 diabetic mice [12]; day 1 after 12 mg/kg,96.8 ± 19.7 mg/dL
same,peaking BG within 15 minutes,type 1 diabetic mice [12]; day 1 after 12 mg/kg,194.8 ± 31.9 mg/dL
same,BG before glucose administration,type 1 diabetic mice [12]; day 5 after 12 mg/kg,163.1 ± 27.7 mg/dL
same,peaking BG within 15 minutes,type 1 diabetic mice [12]; day 5 after 12 mg/kg,310.3 ± 44.2 mg/dL
same,increase in KD for nostrin,mouse nostrin; glucose from 0 to 20 mM,19.5 fold
same,increase in KD for nostrin,mouse nostrin; glucose from 5 to 20 mM,8.4 fold
same,Kd,mouse nostrin; 5 mM glucose,201 nM
same,Kd,mouse nostrin; 10 mM glucose,605 nM
same,Kd,mouse nostrin; 20 mM glucose,1680 nM
same,Kd,mouse nostrin; absence of glucose,86 nM
same,synchronised increase in insulin level upon glucose injection,"type 1 diabetic mice [4]; STZ-induced type 1 diabetic mice, summary statement",more than 3 fold
same,initial PIL,type 1 diabetic mice [4]; [14],210.2 ± 31.7 μU/mL
same,peak PIL,"type 1 diabetic mice [4]; five days after 12 mg/kg, i.p. glucose 3 g/kg, n = 5",573.7 ± 40.0 μU/mL
same,PIL after decline within 120 minutes,type 1 diabetic mice [4]; [14],204.3 ± 52.0 μU/mL
same,initial PIL,"type 1 diabetic mice [4]; one day after 12 mg/kg, n = 5",258.6 ± 37.6 μU/mL
same,BG by 45 minutes,type 1 diabetic mice [4]; [15],below 200 mg/dL
same,increase in PIL,type 1 diabetic mice [4]; [15],approximately 4.2 fold
same,BG spike at 30 minutes,type 1 diabetic mice [4]; [16],310.7 ± 29.2 mg/dL
same,peak PIL,type 1 diabetic mice [4]; [16],1080.4 ± 49.6 μU/mL
same,PIL after decline,"type 1 diabetic mice [4]; one day after 12 mg/kg, in tandem with the BG reduction, n = 5",257.3 ± 45.2 μU/mL
same,histomorphological analysis of major organs by H&E staining,diabetic mice,no apparent pathological alterations
same,baseline serum insulin-129 level,type 1 diabetic minipigs [13]; Pig I,369.1 μU/mL
same,peak serum insulin-129 level,"type 1 diabetic minipigs [13]; Pig I, glucose infusion",907.3 μU/mL
same,baseline serum insulin-129 level,type 1 diabetic minipigs [13]; Pig II,375.5 μU/mL
same,peak serum insulin-129 level,"type 1 diabetic minipigs [13]; Pig II, glucose infusion",1108.0 μU/mL
same,baseline serum insulin-129 level,type 1 diabetic minipigs [13]; Pig III,430.6 μU/mL
same,peak serum insulin-129 level,"type 1 diabetic minipigs [13]; Pig III, glucose infusion",1520.5 μU/mL
same,BG rise within 30 minutes,type 1 diabetic minipigs [13]; Pig Ⅰ,399.6 mg/dL
same,BG rise within 30 minutes,type 1 diabetic minipigs [13]; Pig Ⅱ,316.8 mg/dL
same,BG rise within 30 minutes,type 1 diabetic minipigs [13]; Pig Ⅲ,599.4 mg/dL
same,BG by 45 minutes,"type 1 diabetic minipigs [13]; Pigs Ⅰ, Ⅱ and Ⅲ",below 200 mg/dL
same,rise of serum insulin-129 level from baseline,"type 1 diabetic minipigs [13]; glucose infusion, Pigs I, II and III",approximately threefold
same,Kd,human IgG1-Fc,36.7 nM
same,Kd,human nostrin,241 nM
same,time BG remained within the target range (70 to 200 mg/dL),type 1 diabetic minipigs [5],73.0%
